According to article PMC3095777, “Structure and Activity of a Novel Archaeal β-CASP Protein with N-Terminal KH Domains” (Structure(London, England:1993), 2011):

T1: MTH1203 (Methanothermobacter thermautotrophicus …, UniProt O27271 1-636)
T1 sequence: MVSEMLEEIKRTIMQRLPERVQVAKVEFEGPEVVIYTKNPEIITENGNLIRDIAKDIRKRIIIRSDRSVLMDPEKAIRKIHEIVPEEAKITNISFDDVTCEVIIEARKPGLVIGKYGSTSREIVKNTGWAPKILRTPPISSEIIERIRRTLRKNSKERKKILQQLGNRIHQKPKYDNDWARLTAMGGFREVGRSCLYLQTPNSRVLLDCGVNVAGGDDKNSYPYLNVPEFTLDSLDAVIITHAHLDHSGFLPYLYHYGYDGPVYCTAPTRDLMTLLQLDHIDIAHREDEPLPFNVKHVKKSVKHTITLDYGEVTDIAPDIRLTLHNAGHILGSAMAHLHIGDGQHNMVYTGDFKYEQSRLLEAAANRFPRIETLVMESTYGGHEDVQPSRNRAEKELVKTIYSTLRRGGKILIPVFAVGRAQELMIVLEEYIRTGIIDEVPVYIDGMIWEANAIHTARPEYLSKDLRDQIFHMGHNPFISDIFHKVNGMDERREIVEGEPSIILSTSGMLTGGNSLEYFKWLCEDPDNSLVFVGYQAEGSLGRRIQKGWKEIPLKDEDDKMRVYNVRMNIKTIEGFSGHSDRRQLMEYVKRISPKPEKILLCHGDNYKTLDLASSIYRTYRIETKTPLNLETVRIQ

B1: MTH1203 (enzyme, Methanothermobacter thermautotrophicus, UniProt O27271 1-636, looked up)
chain: MVSEMLEEIKRTIMQRLPERVQVAKVEFEGPEVVIYTKNPEIITENGNLIRDIAKDIRKRIIIRSDRSVLMDPEKAIRKIHEIVPEEAKITNISFDDVTCEVIIEARKPGLVIGKYGSTSREIVKNTGWAPKILRTPPISSEIIERIRRTLRKNSKERKKILQQLGNRIHQKPKYDNDWARLTAMGGFREVGRSCLYLQTPNSRVLLDCGVNVAGGDDKNSYPYLNVPEFTLDSLDAVIITHAHLDHSGFLPYLYHYGYDGPVYCTAPTRDLMTLLQLDHIDIAHREDEPLPFNVKHVKKSVKHTITLDYGEVTDIAPDIRLTLHNAGHILGSAMAHLHIGDGQHNMVYTGDFKYEQSRLLEAAANRFPRIETLVMESTYGGHEDVQPSRNRAEKELVKTIYSTLRRGGKILIPVFAVGRAQELMIVLEEYIRTGIIDEVPVYIDGMIWEANAIHTARPEYLSKDLRDQIFHMGHNPFISDIFHKVNGMDERREIVEGEPSIILSTSGMLTGGNSLEYFKWLCEDPDNSLVFVGYQAEGSLGRRIQKGWKEIPLKDEDDKMRVYNVRMNIKTIEGFSGHSDRRQLMEYVKRISPKPEKILLCHGDNYKTLDLASSIYRTYRIETKTPLNLETVRIQ
notes: MTH1203 from Methanothermobacter thermautotrophicus strain delta H; mth1203 gene amplified from genomic DNA, cloned into pETYSBLIC-3C; predicted molecular mass 73.1 kDa; residues up to 636 named; Dimer at 0.5-0.7 M NaCl or KCl, monomer at 1 M NaCl; full cloning and purification details are in the Supplemental Experimental Procedures; also called β-CASP metallo-β-lactamase family nuclease; source: …
B2: U7 (ssRNA)
RNA: UUUUUUU
B3: A7 (ssRNA)
RNA: AAAAAAA
B4: C7 (ssRNA)
RNA: CCCCCCC
B5: G7 (ssRNA)
RNA: GGGGGGG

Columns and labels:
[1] = molecular target: the molecule itself; assay: SEC-MALS; size exclusion chromatography in line with multiangle laser light scattering; MTH1203 alone; 0.5 M NaCl, or 0.7 M NaCl or KCl
MTH1203 = molecular target: T1, MTH1203; assay: fluorescence anisotropy; 20 mM Tris pH 8.0, 1 M NaCl, 5 nM 5'-fluorescein RNA; temperature not stated; details: protein: recombinant; tags: His-tag (His-tagged construct used in titrations); label: 5' fluorescein; single strand

Row | Binder | binding result (MTH1203) | also measured
1 | B1 |  | stoichiometry N [1]: 2
2 | B2 |  | Kd (MTH1203): 9.2 µM
3 | B3 | no binding | 
4 | B4 | no binding | 
5 | B5 | no binding | 
